Experiment: label from the status in PepcDB records
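Further: failed if final PepcDB status was selected cloned or expressed and not failed if soluble or beyond.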

Row | Sequence | protein production
1 | MRFPSLLALGLTLPLGAFAAGGDSTGGSTWTNPPKETQTTKECKGVKVWDDKKKRCVAPKNSGLDADTLYDAVRELAYAGRPADAQGVLAAMPDQSDDRVLTYWGFTHRKLGDLDRAAFYYQAAIAANPDNILARSYMGQGFVEAGKTDLAIAQWREITARGGEGSWAEVSLREAIRSGLTYSY | failed
2 | MFCGRFANFIMRDVINFIKKYNNFVIIGHKDPDFDCIGSSLALSSFLSRIGKNSILLNEGPFIRKEIVPFKDKFLSEWPNIEISEYSVIILDCSILDRIGDEFIFYVKNMPTLVIDHHMSGEKLECEGYIDPFAPSTTFLIEKLIREFGHDLTKEEAWYILVGFCTDTGFFKFISRSDPEPFEMVARLVSKGISLKEVYSYIETTKSLKSIETLKLMLNSLESYWNGKVLFTFLSSSSSGKDGGVSGVNELFYMILSNVENNEILGILKEMEDGSIIVGLRSKDSFDVGKLAEDFGGGGHKNASGFRIKQGSLEIVKNRMLAYIKDNIYLLEHHHHHH | failed
3 | FDGNLKRYLKSEPIPESNDGPVKVVVAENFDEIVNNENKDVLIEFYAPWCGHCKNLEPKYKELGEKLSKDPNIVIAKMDATANDVPSPYEVRGFPTIYFSPANKKLNPKKYEGGRELSDFISYLQREAT | not failed
4 | MWVYRLKGTLEALDPILPGLFDGGARGLWEREGEVWAFFPAPVDLPYEGVWEEVGDEDWLEAWRRDLKPALAPPFVVLAPWHTWEGAEIPLVIEPGMAFGTGHHETTRLALKALARHLRPGDKVLDLGTGSGVLAIAAEKLGGKALGVDIDPMVLPQAEANAKRNGVRPRFLEGSLEAALPFGPFDLLVANLYAELHAALAPRYREALVPGGRALLTGILKDRAPLVREAMAGAGFRPLEEAAEGEWVLLAYGR | not failed
5 | MGQFYCLHCDRYFSNVSVRDDHFKTKKHKKRVNMMMGQAPHSQLDADLAGGMGMPDNGPKLMSNLVFTELRKPETEDLPGMGQFNCLLCHRNFSNASVMDYHFKTKKHKKRVKKIERPAPHSQLDADLAGGMGMPDNGPKLMSA | not failed
6 | DDSLGEAVTTRAEALTIPAVLRARNLLSTTVARTPLVCDGTLPPFVPVAAPPGAATMQTPFHRMLATADDLLFNGVACWALDRDESGTCIGAIHIPLDTWQIEENTVRVNGKAVDPMEVCIFVGIHGGLLTHASETFTDARNLVRAAARVAQNPAALIELRQTNNAQLSPDDVDRIINGYVAARRGRNSGVGFSSSGLEVHEHEMAKENLLIEGRNAAAVDVARAMNVPAAFIDATVGGTSLSYQNAASRMIELVTFGVEPLMSAIEARLNQPDMHADHLANPLKFDPAALLDAIPTTPTIGAQPHGENS | not failed
7 | MSLIILTRDDEPRIFTPDSDAASPALHSTSPLPDPASASPLHREEKILPKVCNIVSCLSFSLPASPTDSGLASPTIITREGQQFWAKCLIWKYQLYLHGLHKKSDGRRDKQISASPST | failed
8 | MNITVNDRECSAQVGDRLLDIARANHSHIGYFCGGNAICQTCYVRVLEGAELLSPMSDAEKAMLSDKLIKEGTRMACQTLIEKPGKITVLSEVEAAKRLTLENPLQLPAYMGKMGWEAAVKFTDTIAFQARREQGEHALEPTQLLHDVAAAISDAIQLVFNAVQAAFGVNRSTDKPEIKADKGCGCDTTLLAKTATCDNGHGRIVSPEVLQLHQERSAVCN | failed
9 | MGNFMDDQCLLHASALTYSTLLSIVPFFALAFAVLKGLGVQNTLEPFILDQVAAGSHEIVDRIVTYINNTKVGSLGAVGLVTLVVSTVTLLGNIEETFNSIWGVRETRSLYRRFSDYLSVVVFGPILIFAAISVTTTLESQKAVQWLIGTAYLGDVLVAAFRLVPYVSIWLALVFLYMLIPNTKVRFRSALVGGVIAGTLWQAAQWGYIHFQVGVAKYNAIYGTLAVLPVFMIWLYASWSIVLFGVEVVYAHQHRRTFRHETHIPDLEPAARERLALALLLEVCRTFFRDGAPWNAERLAERLDVPERTARETLGMLVAKGWLAESCGEETLYLPARELEHMRVRELIASLRGHAMPLATGRFDPAVEWLAARMEGAVAAELGEVNFRTLAEGGGVD | failed
10 | VALCVLRRSDGRVVLENTLSQQWLGNGSERDQLCSGWIEQAFDPARPNSSDYFETADGRHLYLSSAPTRYNGEDVLFCAFSDISARKQIEAALEEAKRLADTANEAKTLFLATMSHEIRTPLYGVLGTLELLSRTQ | failed
11 | MKIDGETRSARKDREIIQAATAAFISKGYDGTSMEEIATKAGASKQTVYKHFTDKETLFGEVVLSTASQVNDIIESVTTLLSEAIFMEGGLQQLARRLIAVLMDEELLKLRRLIIANADRMPQLGRAWYEKGFERMLASTASCFQKLTNRGLIQTGDPYLAASHLFGMLLWIPMNEAMFTGSNRRSKAELERHADASVEAFLAVYGVQPK | not failed
12 | MLSEQKEIAMQVSGMTCAACAARIEKGLKRMPGVTDANVNLATETVNVIYDPAETGTAAIQEKIEKLGYHVVTEKAEFDIEGMTCAACANRIEKRLNKIEGVANAPVNFALETVTVEYNPKEASVSDLKEAVDKLGYKLKLKGEQDS | not failed
13 | MIDLILAIIILVSALLGLLRGFVSIIISTSSWLLASWATFEFGNTASHWLASHGIPSTTEILCGYALVFIGTLMTVGAVGMLMHAGINAIRLNNIDRIFGFALGTFRGGFIACLLLLMIGYTPLAHEPVWRNSRLVPLLQPGVSWMRAKLPQRSSPLTPQRLPLTRPMINRMGSINISVSDDNQLISRVFPPLSSNEHDKSHYVPVQPIIYKPTTTY | failed
14 | MKKFLFDLFPLILFFVAYRYADIYAATAVAITASIAQILWLRLTGKAIEGMHWINLSVIVIFGGATLWLHSDVFIKWKPTVLYWLFGGALLGARYLFGRNLVRRLLGKQIALPDPVWERLNLSWALFFVAAGAVNLYVAFSGHFTESQWVNFKVFGLMGLLVAFVIAQSLWLGKHLQASDTPDQDRNED | not failed
15 | ATRRYYLGAVELSWDYMQSDLGELPVDARFPPRVPKSFPFNTSVVYKKTLFVEFTDHLFNIAKPRPPWMGLLGPTIQAEVYDTVV | failed
16 | MQKKSIYVAYTGGTIGMQRSDNGYIPVSGHLQRQLALMPEFHRPEMPDFTIHEYAPLIDSSDMTPEDWQHIANDIQQNYDLYDGFVILHGTDTMAFTASALSFMLENLAKPVIITGSQIPLAELRSDGQTNLLNALYLAANHPVNEVSLFFNNQLFRGNRTTKAHADGFDAFASPNLSVLLEAGIHIRRQSSVVSPTSNGPLIVHRITPQPIGVVTIYPGISGAVVRNFLLQPVKALILRSYGVGNAPQKAELLDELKNASDRGIVVVNLTQCISGSVNMGGYATGNALAQAGVISGFDMTVEAALTKLHYLLSQSLSPNEIRQLMQQNLRGELTDTQ | not failed
17 | MKEKVQSPELRFDGFTDGWEQRKFADFIDVKSGKDYKHLNSGSIPVYGTGGYMLSVDRALSDIDAIGFGRKGTIDKPYLLKAPFWTVDTFFYAVPKQNIDLQFSLSIF | failed
18 | MAQTDKHYFGTLLAQTSRAWRAELDRRLSHLGLSQARWLVLLHLARHRDSPTQRELAQSVGVEGPTLARLLDGLESQGLVRRLAVAEDRRAKHIVLTPKADVLIADIEAIAASVRNDVLTGIDESEQALCQQVLLRILANLENR | not failed
19 | MMNTKVALKQLMATHFITVDVPCPECGGAMTAWKEPTPDTPPRCPPVCMECGYRSVKKKEATTAKNLYESSLIKKAKDYFLNGSVLTDRKSLHKKISNYYPSNQESTKAKNISMEFCEKTLLGEIHHLILTGGVGVGKSHLAIGCLNEILVKSNYSKKVLFVSYRELLEQLKFAMNDEEARKAITGVAMSEIKAADVVVLDDIGAELGDFNKRDEKGNLILSRASNFDIDTLTGILESRIDKPTIITSNLKSKEIKYCYGERIVSRMATHSNGFMHRFTNTKDYRLKTALEHHHHHH | not failed
20 | MIEQPSPKVYDELLSIWEEAVRSTHHFLTEADIQFYKPLIRHEYLAAVRLYIIREDSGTIAAFMGLSNDCIEMLFVRPNAHGHGYGSRLVEFAIRKKRIYKVDVNEQNAAALGFYLHMGFETTGRDALDATGKPFPILHLQIPPIRLRK | failed
21 | MFIYGHMEKSERKNYLRESREVSYISLALLIISYIVISSIRFSFYLLSIMLIVSLLNFSIYFYMRYKIHARYHKNIDIQGYILEDNSWRYVLSLSVLLTIFIFLEYPFPFIRFYSFILIVNAFVITTWIVSLNGPIIGMLISRSDPLYEPFLYRAMELANAMNINVPDLYILDTRNRIANAFTVSRKESYVFITRLLMNILDVDEVTAVMAHEFAHIKLRHNLKTSIINFAVILFLINIALYGLTLDSFAGIMLPVISIIIYMFFTTFLLNYIKRRNEINADLTAIKYVNPDYLISALHKIENLEIFSRRISDIYLDHPSIDRRISIINRSRSS | failed
22 | MTAWSLLHVGVFASVVMVVGWLWQRRSGNAGPVDVLWAGCLALAAPYCAWMADGALLPRALVAVLGGVWGARLALHLGVRVFGDPHEDGRYRALREHWNGSQGKFLGFFLAQAVVVVLFAVPFLAAASNPHAEWSAWTGIAIVVWLIAVGGEALADRQLSAHKANPANRGKTCRTGLWRYSRHPNYFFEFVHWFAYLALAVGAGPWPVALCALGPVVMFVFLYRFTGIPYTEQQALRSRGEDYAQYQRSTSAFFPLPPSS | failed
23 | MQKCSLITVISLSVLMLAGCTTTYTMTTRTGEIIETQGKPEVDTATGMTKYADAYGYHRVIKTSEIVQTTEGASKLDWLEHHHHHH | failed
24 | YVFTVELERGPSGLGMGLIDGMHTHLGAPGLYIQTLLPGSPAAADGRLSLGDRILEVNGSSLLGLGYLRAVDLIRHGGKKMRFLVAKSDVETAKKIH | not failed
25 | GTPVSDAEEIKVKYGCALSELVSKDDTVNVPSVGGRPSRSLQRQTLSEVIEPRYSELMGLVNQTIDSVQAKLREEGIKHH | failed
26 | MSVAILAQEKLGDCVLLTPLVRNLRQAFPDLEIHLITFSRASANFFMNDPQVTAVHLVKKQPRRYFREVLSRKFDLLFNTKDHPSTWFLLQSALIRARFKVGHNNPFHEGLYDRLLDTEFHAHMAVKNCALLPLLGVTADTEACRPSLEHHHHHH | not failed
27 | MLEFTKRSLMNKYNINERVLELYERALNDVEKEFKYYDEIREYNQLKVLKAFQEERISESHFTNSSGYGYNDIGRDSLDRVYANIFNTESAFVRPHFVNGTHAIGAALFGNLRPNDTMMSICGMPYDTLHDIIGMDDSKKVGSLREYGVKYKMVDLKDGKVDINTVKEELKKDDSIKLIHIQRSTGYGWRKSLRIAEIAEIIKSIREVNENVIVFVDNCYGEFVEEKEPTDVGADIIAGSLIKNIGGGIATTGGYIAGKEEYVTQATFRVTVPGIGGECGSTFGVMRSLYEGLFMAPHVTIEAVKGAVFCARIMELAGFDVLPKYNDKRTDIIQAIKFNDEKKLIDFIKGIQTASPVDSFVQCEAWDMPGYEDKVIMAAGTFVQGASIELSADAPIREPYIGYLQGGLTFDHAKLGVLIALSKLIM | not failed
28 | MTWQPFYVGTGQAPAGAEEQVVLPPAPPWREFPRRSQHRQFVPPPRLAEAVNAALALRRPLLVTGPAGSGKSTVIEQVAAELALGDVLRWHITSRSSLAEALYRYDALGRIHAQRLEGPGGSDDIAPFLRMGPLGTALLPSARPRALLIDEIDKSDLDLPSDLLDVLERGEFEIPELARYGTDVVPVREHGGERTHLIARGRVQCAEFPFIVMTSNGDRDFPAAFLRRCIRFTMPLPTPETLLRVVEAHMGPEKAAADETGRLITVFLERLTAGESLAVDQLLNAVHLLTGDGAPGDDRRQAIAELILRELSHALEHHHHHH | failed
